Test results from patent US7410639 (VEGENICS, dated 2008).

Target: T1, VEGFR2-EpoR chimeric receptor (mouse VEGFR2 extracellular domain with mouse EpoR transmembrane and … (mouse, UniProt P35918 20-762; P14753 250-507, limits assumed)
T1 construct: extracellular domain;domain: transmembrane and cytoplasmic domains; Expressed on the surface of Ba/F3 cells (line Ba/F3-NYK-EpoR); also called VEGF receptor-2; Flk-1
Test: Ba/F3 VEGFR2-EpoR bioassay (binding inferred from proliferation)
Procedure: Recombinant VEGFDΔNΔC, and material purified by M2 affinity chromatography, was assessed using the VEGFR2 bioassay. Bioassay cells (10^4), washed to remove IL-3, were incubated with aliquots of conditioned medium from VEGF-D transfected COS cells, fraction #1 from the affinity column (void volume), or fraction #3 from the affinity column (containing VEGFDΔNΔC). All samples were tested at an initial concentration of 20% (i.e., ⅕) followed by doubling dilutions. Cells were allowed to incubate for 48 hours at 37° C. in a humidified atmosphere of 10% CO_2. Cell proliferation was quantitated by the addition of 1 μCi of ^3H-thymidine and counting the amount incorporated over a period of 4 hours.
The bioassay for the capacity of polypeptides to bind to VEGF receptor-2 is described in detail in Example 7. Aliquots of fractions eluted from the M2 affinity column, containing the VEGFDΔNΔC protein, were diluted in medium and tested in the VEGFR2 bioassay as previously described.

T1 sequence (P35918 other isoform, or with tags, fused parts or gaps mutant limits assumed): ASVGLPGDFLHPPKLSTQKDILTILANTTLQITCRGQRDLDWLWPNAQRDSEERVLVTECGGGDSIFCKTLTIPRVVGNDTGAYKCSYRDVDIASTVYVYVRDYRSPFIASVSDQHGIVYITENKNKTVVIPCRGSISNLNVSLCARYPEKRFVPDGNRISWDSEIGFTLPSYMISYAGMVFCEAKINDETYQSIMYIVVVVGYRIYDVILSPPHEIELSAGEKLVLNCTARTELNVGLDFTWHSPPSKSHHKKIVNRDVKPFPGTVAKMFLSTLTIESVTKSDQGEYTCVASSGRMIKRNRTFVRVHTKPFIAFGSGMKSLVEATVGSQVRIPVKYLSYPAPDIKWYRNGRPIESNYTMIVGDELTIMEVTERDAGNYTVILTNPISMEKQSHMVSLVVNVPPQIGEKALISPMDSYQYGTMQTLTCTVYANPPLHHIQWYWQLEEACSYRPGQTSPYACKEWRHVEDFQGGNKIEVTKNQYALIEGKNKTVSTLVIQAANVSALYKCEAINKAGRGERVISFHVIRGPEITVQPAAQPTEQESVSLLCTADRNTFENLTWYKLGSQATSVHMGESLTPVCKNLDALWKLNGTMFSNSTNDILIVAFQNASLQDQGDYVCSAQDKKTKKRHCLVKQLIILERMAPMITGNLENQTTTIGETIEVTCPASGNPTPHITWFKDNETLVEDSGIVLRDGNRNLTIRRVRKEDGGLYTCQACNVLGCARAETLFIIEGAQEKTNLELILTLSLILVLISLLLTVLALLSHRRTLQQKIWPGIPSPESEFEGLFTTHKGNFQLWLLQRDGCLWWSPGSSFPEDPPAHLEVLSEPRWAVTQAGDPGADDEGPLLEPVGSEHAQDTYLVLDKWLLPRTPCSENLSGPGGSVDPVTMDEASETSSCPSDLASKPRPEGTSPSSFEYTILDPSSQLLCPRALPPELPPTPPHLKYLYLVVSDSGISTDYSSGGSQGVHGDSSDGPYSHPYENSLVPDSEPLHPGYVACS

binding result: binds
B1: VEGFDΔNΔC (ligand)
chain: FYDIETLKVIDEEWQRTQCSPRETCVEVASELGKSTNTFFKPPCVNVFRCGGCCNEESLICMNTSTSYISKQLFEISVPLTSVPELVPVKVANHTGCKCLPTAPRHPYS
notes: also called internal VEGF-D polypeptide; fraction #3; not shown: FLAG octapeptide at the N-terminus
